Laboratory results from IntAct's records for PubMed 18242179.

B1: Calcium/calmodulin-dependent protein kinase kinase 1 (Homo sapiens), Q8N5S9 (parent)
chain: MEGGPAVCCQDPRAELVERVAAIDVTHLEEADGGPEPTRNGVDPPPRARAASVIPGSTSRLLPARPSLSARKLSLQERPAGSYLEAQAGPYATGPASHISPRAWRRPTIESHHVAISDAEDCVQLNQYKLQSEIGKGAYGVVRLAYNESEDRHYAMKVLSKKKLLKQYGFPRRPPPRGSQAAQGGPAKQLLPLERVYQEIAILKKLDHVNVVKLIEVLDDPAEDNLYLVFDLLRKGPVMEVPCDKPFSEEQARLYLRDVILGLEYLHCQKIVHRDIKPSNLLLGDDGHVKIADFGVSNQFEGNDAQLSSTAGTPAFMAPEAISDSGQSFSGKALDVWATGVTLYCFVYGKCPFIDDFILALHRKIKNEPVVFPEEPEISEELKDLILKMLDKNPETRIGVPDIKLHPWVTKNGEEPLPSEEEHCSVVEVTEEEVKNSVRLIPSWTTVILVKSMLRKRSFGNPFEPQARREERSMSAPGNLLVKEGFGEGGKSPELPGVQEDEAAS
partner: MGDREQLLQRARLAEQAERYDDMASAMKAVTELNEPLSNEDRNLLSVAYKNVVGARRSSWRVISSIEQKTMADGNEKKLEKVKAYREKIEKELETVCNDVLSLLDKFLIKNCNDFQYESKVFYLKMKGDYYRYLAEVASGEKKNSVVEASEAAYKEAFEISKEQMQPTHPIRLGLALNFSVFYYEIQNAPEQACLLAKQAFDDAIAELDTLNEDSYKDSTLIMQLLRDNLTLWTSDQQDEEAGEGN

Variants of: B1
Conditions: with 1433f_human YWHAH

effect of a mutation on the interaction	Variant
disrupting interaction	S52A;S74A;T108A;S475A

Variants of: B1
Conditions: with 1433f_human YWHAH
Remark: another data set of the same source

effect of a mutation on the interaction	Variant
disrupting interaction	S74A
disrupting interaction	S475A

Variants of: B1
Conditions: with 1433f_human YWHAH
Remark: another data set of the same source

effect of a mutation on the interaction	Variant
disrupting interaction	S52A;S74A;S458A;S475A

Variants of: B1
Conditions: with 1433f_human YWHAH
Remark: another data set of the same source

effect of a mutation on the interaction	Variant
decreasing interaction	S52A;T108A;S458A;S475A
